Reference: paper PMC7335806

Assays:
[1] = immunofluorescence, surface localisation in COS7 cells; conditions: glycan lost; control: HA-Fzd6wt
[2] = in vitro vesicle formation assay, immunoblot; conditions: glycan lost; control: Fzd6WT

B1: Frizzled-6 (Fzd6): N38A, N352A (protein)
parent chain: MERSPFLLACILLPLVRGHSLFTCEPITVPRCMKMTYNMTFFPNLMGHYDQGIAAVEMGHFLHLANLECSPNIEMFLCQAFIPTCTEQIHVVLPCRKLCEKIVSDCKKLMDTFGIRWPEELECNRLPHCDDTVPVTSHPHTELSGPQKKSDQVPRDIGFWCPKHLRTSGDQGYRFLGIEQCAPPCPNMYFKSDELDFAKSFIGIVSIFCLCATLFTFLTFLIDVRRFRYPERPIIYYSVCYSIVSLMYFVGFLLGNSTACNKADEKLELGDTVVLGSKNKACSVVFMFLYFFTMAGTVWWVILTITWFLAAGRKWSCEAIEQKAVWFHAVAWGAPGFLTVMLLAMNKVEGDNISGVCFVGLYDLDASRYFVLLPLCLCVFVGLSLLLAGIISLNHVRQVIQHDGRNQEKLKKFMIRIGVFSGLYLVPLVTLLGCYVYELVNRITWEMTWFSDHCHQYRIPCPYQANPKARPELALFMIKYLMTLIVGISAVFWVGSKKTCTEWAGFFKRNRKRDPISESRRVLQESCEFFLKHNSKVKHKKKHGAPGPHRLKVISKSMGTSTGATTNHGTSAMAIADHDYLGQETSTEVHTSPEASVKEGRADRANTPSAKDRDCGESAGPSSKLSGNRNGRESRAGGLKERSNGSEGAPSEGRVSPKSSVPETGLIDCSTSQAASSPEPTSLKGSTSLPVHSASRARKEQGAGSHSDA
- localisation_or_trafficking [1]: decreases
- localisation_or_trafficking [2]: decreases
